This is an account of results in paper PMC5283830, “Suppression of C9orf72 RNA repeat-induced neurotoxicity by the ALS-associated RNA-binding protein Zfp106”.

In data set [1] the target is T1, Zfp106 (Mus musculus, UniProt O88466 1-1888). The data set is described as follows: competition; 30x molar excess vs r(GGGGCC)4 probe; EMSA: 40 mM Tris-Cl pH 8.0, 30 mM KCl, 1 mM MgCl2, 0.01% NP-40, 1 mM DTT, 5% glycerol, 10 ug/ml BSA, 30 min room temperature; pull-down: nuclear extract in 50 mM Tris pH 7.4, 150 mM NaCl, 1 mM EDTA, 0.5% NP-40, 4 h at 4 C. To be noted: protein: recombinant, tags: N-terminal 3xFLAG-2xSTREP.
T1 sequence (O88466 whole entry): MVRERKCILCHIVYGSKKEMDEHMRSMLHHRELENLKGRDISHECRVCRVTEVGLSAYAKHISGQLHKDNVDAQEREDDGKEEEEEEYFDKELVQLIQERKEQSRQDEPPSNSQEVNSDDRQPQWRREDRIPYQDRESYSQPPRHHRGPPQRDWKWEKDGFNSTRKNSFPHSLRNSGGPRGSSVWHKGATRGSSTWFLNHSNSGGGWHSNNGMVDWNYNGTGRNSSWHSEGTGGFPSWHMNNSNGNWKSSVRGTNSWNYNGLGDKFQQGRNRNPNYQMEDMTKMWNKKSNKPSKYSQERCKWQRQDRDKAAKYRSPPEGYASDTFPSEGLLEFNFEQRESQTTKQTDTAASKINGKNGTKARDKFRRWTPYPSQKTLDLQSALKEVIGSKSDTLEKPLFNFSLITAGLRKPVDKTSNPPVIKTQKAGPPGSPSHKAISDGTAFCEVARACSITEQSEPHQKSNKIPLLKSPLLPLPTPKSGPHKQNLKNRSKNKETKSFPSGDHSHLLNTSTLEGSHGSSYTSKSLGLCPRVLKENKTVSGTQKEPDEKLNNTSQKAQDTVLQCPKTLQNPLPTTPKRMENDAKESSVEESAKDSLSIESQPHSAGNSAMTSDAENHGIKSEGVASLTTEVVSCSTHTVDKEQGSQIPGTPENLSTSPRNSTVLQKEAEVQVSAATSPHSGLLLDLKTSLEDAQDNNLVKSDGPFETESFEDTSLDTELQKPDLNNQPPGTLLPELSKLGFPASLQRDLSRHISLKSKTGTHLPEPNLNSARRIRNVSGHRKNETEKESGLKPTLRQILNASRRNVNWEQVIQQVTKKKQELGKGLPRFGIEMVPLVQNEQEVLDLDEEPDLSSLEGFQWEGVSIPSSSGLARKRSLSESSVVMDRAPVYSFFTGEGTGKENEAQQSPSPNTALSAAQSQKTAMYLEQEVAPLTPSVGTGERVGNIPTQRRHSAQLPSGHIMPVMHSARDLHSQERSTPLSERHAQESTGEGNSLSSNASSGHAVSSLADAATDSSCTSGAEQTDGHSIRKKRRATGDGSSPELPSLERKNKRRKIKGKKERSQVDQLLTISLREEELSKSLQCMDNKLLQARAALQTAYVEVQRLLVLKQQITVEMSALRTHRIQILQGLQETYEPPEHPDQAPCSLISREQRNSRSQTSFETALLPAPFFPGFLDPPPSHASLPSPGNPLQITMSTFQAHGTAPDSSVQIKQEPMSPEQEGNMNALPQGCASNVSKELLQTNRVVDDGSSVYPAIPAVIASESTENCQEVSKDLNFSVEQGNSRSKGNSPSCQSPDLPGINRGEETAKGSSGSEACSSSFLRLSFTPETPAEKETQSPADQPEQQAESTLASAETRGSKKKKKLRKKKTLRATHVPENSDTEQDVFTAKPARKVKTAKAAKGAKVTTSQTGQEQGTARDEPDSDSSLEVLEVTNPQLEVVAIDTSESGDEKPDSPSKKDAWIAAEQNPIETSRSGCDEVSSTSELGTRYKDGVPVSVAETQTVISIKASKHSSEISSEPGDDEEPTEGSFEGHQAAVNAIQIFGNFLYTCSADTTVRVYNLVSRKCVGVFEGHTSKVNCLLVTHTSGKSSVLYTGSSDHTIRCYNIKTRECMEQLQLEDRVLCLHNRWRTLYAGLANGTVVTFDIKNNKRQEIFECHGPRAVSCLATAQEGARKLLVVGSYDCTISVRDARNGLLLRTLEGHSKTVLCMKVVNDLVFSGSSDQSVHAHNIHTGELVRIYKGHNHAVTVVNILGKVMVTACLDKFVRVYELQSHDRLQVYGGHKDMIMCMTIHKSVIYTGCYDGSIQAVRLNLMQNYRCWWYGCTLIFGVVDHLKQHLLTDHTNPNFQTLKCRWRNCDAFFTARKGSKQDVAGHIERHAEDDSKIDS

The target in data set [2] is T2, MBNL1 (Mus musculus, UniProt G3X9Q0 1-381).
T2 sequence: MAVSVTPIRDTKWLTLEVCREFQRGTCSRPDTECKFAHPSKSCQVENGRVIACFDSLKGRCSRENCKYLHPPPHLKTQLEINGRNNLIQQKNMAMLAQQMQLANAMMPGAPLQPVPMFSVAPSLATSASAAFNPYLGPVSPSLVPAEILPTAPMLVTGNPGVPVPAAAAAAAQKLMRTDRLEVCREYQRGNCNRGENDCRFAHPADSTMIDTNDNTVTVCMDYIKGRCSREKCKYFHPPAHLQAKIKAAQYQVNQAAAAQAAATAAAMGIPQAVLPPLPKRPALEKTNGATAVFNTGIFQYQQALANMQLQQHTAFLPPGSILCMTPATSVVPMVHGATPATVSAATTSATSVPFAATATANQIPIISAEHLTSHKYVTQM
The data set is described as follows: EMSA; 1 mM Mg2+; competed by 30x unlabeled self; EMSA: 40 mM Tris-Cl pH 8.0, 30 mM KCl, 1 mM MgCl2, 0.01% NP-40, 1 mM DTT, 5% glycerol, 10 ug/ml BSA, 30 min room temperature; pull-down: nuclear extract in 50 mM Tris pH 7.4, 150 mM NaCl, 1 mM EDTA, 0.5% NP-40, 4 h at 4 C. To be noted: protein: recombinant; tags: N-terminal 3xFLAG-2xSTREP; label: 5' 32P (probe).

Data set [3] deals with T2, MBNL1. The data set can be described thus: EMSA; 1 mM Mg2+; EMSA: 40 mM Tris-Cl pH 8.0, 30 mM KCl, 1 mM MgCl2, 0.01% NP-40, 1 mM DTT, 5% glycerol, 10 ug/ml BSA, 30 min room temperature; pull-down: nuclear extract in 50 mM Tris pH 7.4, 150 mM NaCl, 1 mM EDTA, 0.5% NP-40, 4 h at 4 C. The following applies: protein: recombinant; tags: N-terminal 3xFLAG-2xSTREP; label: 5' 32P (probe).

Data set [4] concerns the target T1, Zfp106. The data set is described as follows: EMSA; 1 mM Mg2+; competed by 30x unlabeled self; EMSA: 40 mM Tris-Cl pH 8.0, 30 mM KCl, 1 mM MgCl2, 0.01% NP-40, 1 mM DTT, 5% glycerol, 10 ug/ml BSA, 30 min room temperature; pull-down: nuclear extract in 50 mM Tris pH 7.4, 150 mM NaCl, 1 mM EDTA, 0.5% NP-40, 4 h at 4 C. The following applies: protein: recombinant; tags: N-terminal 3xFLAG-2xSTREP; label: 5' 32P (probe).

On to GAGGCCGGGACCGAGACCGAGGCC (ssRNA) [mutated r(GGGGCC)4 (mut)], for which the binding result with Zfp106 [1] is reported as “no binding”. On to CUGCUGCUGCUGCUGCUGCUGCUG (ssRNA) [r(CUG)8], for which the binding result was “no binding” in the data set with Zfp106 [1] (label: 5' 32P (probe)) and “binds” in the data set with MBNL1 [2].

Take GGGGCCGGGGCCGGGGCCGGGGCC (ssRNA) [r(GGGGCC)4]: the binding result is “no binding” with MBNL1 [3] and “binds” with Zfp106 [4]. Turning to AAAACCAAAACCAAAACCAAAACC (ssRNA) [r(AAAACC)4], the binding result in the data set with Zfp106 [1] is “no binding”.
